According to patent US20170258835A1 (University of Pennsylvania, published 2017):

B1: C2177.CD19 bi-specific antibody (bispecific antibody)
chain: DIVLTQSPASLAVSLGQRATISCKASQSVDYAGDSYMNWYQQKPGQPPKLLIYAASNLESGIPARFSGSGSGTDFTLNIHPVEEEDAATYYCQQSNEDPYTFGGGTKLEIKGGGGSGGGGSGGGGSQVQLQQSGPELVKPGASVKISCKASGYAFSSSWMNWVKQRPGKGLEWIGRIYPGDGDTNYNGKFKGKATLTADKSSSTAYMQLSSLTSEDSAVYFCARSDYYGDYGFAYWGQGTLVTVSAGGGGSDIQMTQTTSSLSASLGDRVTISCRASQDISKYLNWYQQKPDGTVKLLIYHTSRLHSGVPSRFSGSGSGTDYSLTISNLEQEDIATYFCQQGNTLPYTFGGGTKLEITGGGGSGGGGSGGGGSEVKLQESGPGLVAPSQSLSVTCTVSGVSLPDYGVSWIRQPPRKGLEWLGVIWGSETTYYNSALKSRLTIIKDNSKSQVFLKMNSLQTDDTAIYYCAKHYYYGGSYAMDYWGQGTSVTVSS
notes: anti-CD27 (C2177) x anti-CD19; also called aCD27-aCD19
B2: M709.CD19 bi-specific antibody (bispecific antibody)
chain: DIVMTQSPDSLAVSLGERATINCKASQSVDYAGESFMNWYQQKPGQPPKLLIYAASNLESGVPDRFSGSGSGTDFTLTISSLQAEDVAVYYCQQSNEDPYTFGQGTKLEIKGGGGSGGGGSGGGGSEVQLVQSGAEVKKPGESLKISCKGSGYAFSSSWMNWVRQMPGKGLEWMGRIYAGDADTAYSPSFQGQVTISADKSISTAYLQWSSLKASDTAMYYCARSDYYGDYGFAYWGQGTLVTVSSGGGGSDIQMTQTTSSLSASLGDRVTISCRASQDISKYLNWYQQKPDGTVKLLIYHTSRLHSGVPSRFSGSGSGTDYSLTISNLEQEDIATYFCQQGNTLPYTFGGGTKLEITGGGGSGGGGSGGGGSEVKLQESGPGLVAPSQSLSVTCTVSGVSLPDYGVSWIRQPPRKGLEWLGVIWGSETTYYNSALKSRLTIIKDNSKSQVFLKMNSLQTDDTAIYYCAKHYYYGGSYAMDYWGQGTSVTVSS
notes: anti-CD27 (M709) x anti-CD19; also called aCD27-aCD19
B3: M708.CD19 bi-specific antibody (bispecific antibody)
chain: DIQMTQSPSSLSASVGDRVTITCRASKSVSTSGYSFMHWYQQKPGKAPKLLIYVGSRLDYGVPSRFSGSGSGTDFTLTISSLQPEDFATYYCQHSRELPWTFGQGTKVEIKGGGGSGGGGSGGGGSEVQLLESGGGLVQPGGSLRLSCAASGFTFSSYTMSWVRQAPGKGLEWVSVIDHGGGSTHYPDSVKGRFTISRDNSKNTLYLQMNSLRAEDTAVYYCARHRGNPFDYWGQGTLVTVSSGGGGSDIQMTQTTSSLSASLGDRVTISCRASQDISKYLNWYQQKPDGTVKLLIYHTSRLHSGVPSRFSGSGSGTDYSLTISNLEQEDIATYFCQQGNTLPYTFGGGTKLEITGGGGSGGGGSGGGGSEVKLQESGPGLVAPSQSLSVTCTVSGVSLPDYGVSWIRQPPRKGLEWLGVIWGSETTYYNSALKSRLTIIKDNSKSQVFLKMNSLQTDDTAIYYCAKHYYYGGSYAMDYWGQGTSVTVSS
notes: anti-CD27 (M708) x anti-CD19; also called aCD27-aCD19

Target: T1, CD27-Z CLEAR (UniProt P26842 20-260; P20963 52-163)
T1 construct: also called CD27 CLEAR
T1 sequence (P26842 other isoform, or with tags, fused parts or gaps): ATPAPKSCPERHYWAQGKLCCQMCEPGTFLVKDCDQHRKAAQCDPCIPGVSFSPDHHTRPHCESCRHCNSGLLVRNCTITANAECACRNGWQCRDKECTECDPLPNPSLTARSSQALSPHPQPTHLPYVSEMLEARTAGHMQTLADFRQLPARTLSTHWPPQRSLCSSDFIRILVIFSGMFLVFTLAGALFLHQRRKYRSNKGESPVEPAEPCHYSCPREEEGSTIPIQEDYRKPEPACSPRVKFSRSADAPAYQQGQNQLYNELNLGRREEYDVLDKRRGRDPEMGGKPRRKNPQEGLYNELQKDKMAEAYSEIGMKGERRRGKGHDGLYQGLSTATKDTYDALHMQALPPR
Experiment: flow cytometry, T cells co-electroporated with CD27-Z RNA and bi-specific antibody RNA, stained with anti-mouse IgG Fab (streptavidin APC) and anti-CD27 FITC; controls: CD27Z alone Q2 2.52 and Q3 9.39, NO EP Q2 0.089 and Q3 1.92

| Binder | percent of cells CD27+ mIgG Fab+ (Q2) | percent of cells CD27- mIgG Fab+ (Q3) |
| --- | --- | --- |
| B1 | 13.8 | 84.2 |
| B2 | 0.35 | 52.2 |
| B3 | 7.58 | 18.8 |
